The values below are quoted from earlier work in publication PMC9371363.

Some results are limits rather than exact numbers.

The target of one data set is IL-4Rα (Homo sapiens) (UniProt P24394).
The next data set deals with IL-13Rα2 (Homo sapiens) (UniProt Q14627).
UniProt Q14627, sequence (Q14627 27-343): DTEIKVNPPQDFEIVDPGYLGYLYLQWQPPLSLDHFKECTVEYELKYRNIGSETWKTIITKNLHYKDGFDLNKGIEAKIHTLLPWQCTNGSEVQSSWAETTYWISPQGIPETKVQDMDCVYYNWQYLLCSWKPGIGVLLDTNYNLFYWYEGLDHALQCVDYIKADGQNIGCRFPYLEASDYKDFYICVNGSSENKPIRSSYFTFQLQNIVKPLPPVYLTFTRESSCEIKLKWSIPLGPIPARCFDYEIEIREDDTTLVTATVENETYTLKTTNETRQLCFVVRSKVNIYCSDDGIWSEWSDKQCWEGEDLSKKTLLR

UniProt P24394, sequence (P24394 26-232): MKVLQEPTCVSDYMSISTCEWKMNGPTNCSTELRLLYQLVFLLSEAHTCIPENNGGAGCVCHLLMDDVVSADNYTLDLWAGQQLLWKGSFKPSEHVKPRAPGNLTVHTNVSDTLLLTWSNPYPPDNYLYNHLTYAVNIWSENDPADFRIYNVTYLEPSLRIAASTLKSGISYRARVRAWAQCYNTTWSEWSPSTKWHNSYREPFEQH

As usually defined, the Kd is the free concentration of one partner at which half of the binding sites on the other are occupied at equilibrium, for simple one-to-one binding. For IL-4 (from UniProt P05112), the dissociation constant Kd with IL-4Rα (Homo sapiens) is 100 pM.

For the substance IL-13 (from UniProt P35225), in the data set with IL-13Rα2 (Homo sapiens), the Kd was below 0.001 pM.
